# According to PMC5538626, “Structural and functional analysis of the GABARAP interaction motif (GIM)” (EMBO Reports, 2017):
# B1: PLEKHM1‐WCIL (full length): full-length PLEKHM1-Flag, variant LIR WVNV/WCIL (protein)
# chain: MLSVVENGLDPQAAIPVIKKKLVGSVKALQKQYVSLDTVVTSEDGDANTMCSALEAVFIHGLHAKHIRAEAGGKRKKSAHQKPLPQPVFWPLLKAVTHKHIISELEHLTFVNTDVGRCRAWLRLALNDGLMECYLKLLLQEQARLHEYYQPTALLRDAEEGEFLLSFLQGLTSLSFELSYKSAILNEWTLTPLALSGLCPLSELDPLSTSGAELQRKESLDSISHSSGSEDIEVHHSGHKIRRNQKLTASSLSLDTASSSQLSCSLNSDSCLLQENGSKSPDHCEEPMSCDSDLGTANAEDSDRSLQEVLLEFSKAQVNSVPTNGLSQETEIPTPQASLSLHGLNTSTYLHCEAPAEPLPAQAASGTQDGVHVQEPRPQAPSPLDLQQPVESTSGQQPSSTVSETAREVGQGNGLQKAQAHDGAGLKLVVSSPTSPKNKSWISEDDFYRPSREQPLESASDHPIASYRGTPGSRPGLHRHFSQEPRKNCSLGALDQACVPSPGRRQAQAAPSQGHKSFRVVHRRQMGLSNPFRGLMKLGTVERRGAMGIWKELFCELSPLEFRLYLSNEEHTCVENCSLLRCESVGPAHSDGRFELVFSGKKLALRASSQDEAEDWLDRVREALQKVRPQQEDEWCILQYPDQPEEPPEAPQGCLSPSDLLSEPAALQGTQFDWSSAQVPEPDAIKESLLYLYMDRTWMPYIFSLSLEALKCFRIRNNEKMLSDSHGVETIRDILPDTSLGGPSFFKIITAKAVLKLQAGNAEEAALWRDLVRKVLASYLETAEEAVTLGGSLDENCQEVLKFATRENGFLLQYLVAIPMEKGLDSQGCFCAGCSRQIGFSFVRPKLCAFSGLYYCDICHQDDASVIPARIIHNWDLTKRPICRQALKFLTQIRAQPLINLQMVNASLYEHVERMHLIGRRREQLKLLGDYLGLCRSGALKELSKRLNHRNYLLESPHRFSVADLQQIADGVYEGFLKALIEFASQHVYHCDLCTQRGFICQICQHHDIIFPFEFDTTVRCAECKTVFHQSCQAVVKKGCPRCARRRKYQEQNIFA
# modifications: left off: Flag, end not stated, kept
# B2: Plekhm1-mutLIR: full-length PLEKHM1-Flag, mutant LIR EDEWVNV/AAAAVNG (protein)
# chain: MLSVVENGLDPQAAIPVIKKKLVGSVKALQKQYVSLDTVVTSEDGDANTMCSALEAVFIHGLHAKHIRAEAGGKRKKSAHQKPLPQPVFWPLLKAVTHKHIISELEHLTFVNTDVGRCRAWLRLALNDGLMECYLKLLLQEQARLHEYYQPTALLRDAEEGEFLLSFLQGLTSLSFELSYKSAILNEWTLTPLALSGLCPLSELDPLSTSGAELQRKESLDSISHSSGSEDIEVHHSGHKIRRNQKLTASSLSLDTASSSQLSCSLNSDSCLLQENGSKSPDHCEEPMSCDSDLGTANAEDSDRSLQEVLLEFSKAQVNSVPTNGLSQETEIPTPQASLSLHGLNTSTYLHCEAPAEPLPAQAASGTQDGVHVQEPRPQAPSPLDLQQPVESTSGQQPSSTVSETAREVGQGNGLQKAQAHDGAGLKLVVSSPTSPKNKSWISEDDFYRPSREQPLESASDHPIASYRGTPGSRPGLHRHFSQEPRKNCSLGALDQACVPSPGRRQAQAAPSQGHKSFRVVHRRQMGLSNPFRGLMKLGTVERRGAMGIWKELFCELSPLEFRLYLSNEEHTCVENCSLLRCESVGPAHSDGRFELVFSGKKLALRASSQDEAEDWLDRVREALQKVRPQQAAAAVNGQYPDQPEEPPEAPQGCLSPSDLLSEPAALQGTQFDWSSAQVPEPDAIKESLLYLYMDRTWMPYIFSLSLEALKCFRIRNNEKMLSDSHGVETIRDILPDTSLGGPSFFKIITAKAVLKLQAGNAEEAALWRDLVRKVLASYLETAEEAVTLGGSLDENCQEVLKFATRENGFLLQYLVAIPMEKGLDSQGCFCAGCSRQIGFSFVRPKLCAFSGLYYCDICHQDDASVIPARIIHNWDLTKRPICRQALKFLTQIRAQPLINLQMVNASLYEHVERMHLIGRRREQLKLLGDYLGLCRSGALKELSKRLNHRNYLLESPHRFSVADLQQIADGVYEGFLKALIEFASQHVYHCDLCTQRGFICQICQHHDIIFPFEFDTTVRCAECKTVFHQSCQAVVKKGCPRCARRRKYQEQNIFA
# modifications: left off: Flag, end not stated, kept
# B3: E19V: GFP-FUNDC1 E19V (protein, UniProt Q8IVP5 1-155, looked up, variant E19V)
# FUN14 domain-containing …: MATRNPPPQDYESDDDSYVVLDLTEYARRHQWWNRVFGHSSGPMVEKYSVATQIVMGGVTGWCAGFLFQKVGKLAATAVGGGFLLLQIASHSGYVQIDWKRVEKDVNKAKRQIKKRANKAAPEINNLIEEATEFIKQNIVISSGFVGGFLLGLAS
# modifications: GFP tag
# B4: L21V: GFP-FUNDC1 L21V (protein, UniProt Q8IVP5 1-155, looked up, variant L21V)
# FUN14 domain-containing …: MATRNPPPQDYESDDDSYEVVDLTEYARRHQWWNRVFGHSSGPMVEKYSVATQIVMGGVTGWCAGFLFQKVGKLAATAVGGGFLLLQIASHSGYVQIDWKRVEKDVNKAKRQIKKRANKAAPEINNLIEEATEFIKQNIVISSGFVGGFLLGLAS
# modifications: GFP tag
# Tests used:
# GFP-LC3B = assay: Co-immunoprecipitation of full-length PLEKHM1 LIR variants with GFP-LC3B; conditions: full-length PLEKHM1-Flag, Fig 4C
# endogenous LC3B = assay: Co-immunoprecipitation of GFP-FUNDC1 with endogenous LC3B, HEK293 cells; format: cell-based; conditions: HEK293, non-stimulated (DMSO); Fig 5C left
# Description: (§1) Blots were probed for the presence of endogenous GABARAP and LC3B proteins. • 3xFlag‐FIP200 WT, E703V, I705V, E703V/I705V and F702A/I705A were overexpressed in HEK293 cells and immunoprecipitated using anti‐Flag beads and subjected to SDS–PAGE and Western blotting. Blots were probed for the presence of endogenous GABARAP and LC3B proteins. • GFP‐FUNDC1 WT, E19V, L21V, E19V/L21V and Y18A/L21A were overexpressed in HEK293 cells and either treated with vehicle only (DMSO) or 20 μM CCCP for 2 h, lysed and GFP‐FUNDC1 immunoprecipitated using anti‐GFP beads (or anti‐RFP beads as control) and subjected to SDS–PAGE and Western blotting. Blots were probed for the presence of endogenous GABARAP and LC3B proteins.
# endogenous GABARAP = assay: Co-immunoprecipitation of GFP-FUNDC1 with endogenous GABARAP, HEK293 cells; format: cell-based; conditions: HEK293, non-stimulated (DMSO); Fig 5C left
# Description: as §1
Molecule,co-precipitation with GFP-LC3B (GFP-LC3B),co-precipitation with GFP-LC3B (GFP-LC3B; listed as Plekhm1-WCIL),interaction of FUNDC1 with endogenous LC3 (endogenous LC3B),interaction of FUNDC1 with endogenous GABARAP (endogenous GABARAP)
B1,increased co‐precipitation with GFP‐LC3B,increased interaction,–,–
B2,decreased interaction,–,–,–
B3,–,–,increased LC3 interaction,moderately enhanced
B4,–,–,little effect,little effect
